To fix the notation:
B1: trypsin variant SEQ ID NO: 52 (protein)
chain: IVGGYTCAANSIPYQVSLNSGSHRCGGSLINSQWVVSAAHCYKLRIQVRLGEHNIDVLEGNEQFINAAKIITHPNFNGNTLDNDIMLIKLSSPATLNSRVATVSLPRSCAAAGTECLISGWGNTKSSGSSYPSLLQCLKAPVLSDSSCKSSYPGQITGNMICVGFLEGGKDACQGDSGGPVVCNGQLQGIVSSGYGCAQKNKPGVYTKVCNYVNWIQQTIAAN
B2: trypsin variant SEQ ID NO: 58 (protein)
chain: B1 chain with L44S, R107P
B3: trypsin variant SEQ ID NO: 21 (protein)
chain: B1 chain with L44S, K125H
B4: trypsin variant SEQ ID NO: 23 (protein)
chain: B1 chain with L44S, K125Q
B5: trypsin variant SEQ ID NO: 65 (protein)
chain: B1 chain with L44S, Y131G
B6: trypsin variant SEQ ID NO: 13 (protein)
chain: B1 chain with L44S, R99E
B7: trypsin variant SEQ ID NO: 12 (protein)
chain: B1 chain with L44S, R99D
B8: trypsin variant SEQ ID NO: 63 (protein)
chain: B1 chain with L44S, Y131I
B9: trypsin variant SEQ ID NO: 54 (protein)
chain: B1 chain with L44S, D56A
B10: trypsin variant SEQ ID NO: 66 (protein)
chain: B1 chain with L44S, Y131S
B11: trypsin variant SEQ ID NO: 67 (protein)
chain: B1 chain with L44S, Y131Q
B12: trypsin variant SEQ ID NO: 16 (protein)
chain: B1 chain with L44S, K125G
B13: trypsin variant SEQ ID NO: 22 (protein)
chain: B1 chain with L44S, K125L
B14: trypsin variant SEQ ID NO: 70 (protein)
chain: B1 chain with L44S, S193Y
B15: trypsin variant SEQ ID NO: 68 (protein)
chain: B1 chain with L44S, Y131D
B16: trypsin variant SEQ ID NO: 62 (protein)
chain: B1 chain with L44S, Y131V
B17: trypsin variant SEQ ID NO: 60 (protein)
chain: B1 chain with L44S, R107S
B18: trypsin variant SEQ ID NO: 120 (protein)
chain: B1 chain with L44S, K125P
B19: trypsin variant SEQ ID NO: 17 (protein)
chain: B1 chain with L44S, K125Y
B20: trypsin variant SEQ ID NO: 72 (protein)
chain: B1 chain with L44S, G78S
B21: trypsin variant SEQ ID NO: 130 (protein)
chain: B1 chain with L44S, S193C
B22: trypsin variant SEQ ID NO: 61 (protein)
chain: B1 chain with L44S, R107D
B23: trypsin variant SEQ ID NO: 76 (protein)
chain: B1 chain with L44S, G78E
B24: trypsin variant SEQ ID NO: 125 (protein)
chain: B1 chain with R24D, L44S
B25: trypsin variant SEQ ID NO: 121 (protein)
chain: B1 chain with L44S, K170I
B26: trypsin variant SEQ ID NO: 55 (protein)
chain: B1 chain with L44S, D56W
B27: trypsin variant SEQ ID NO: 75 (protein)
chain: B1 chain with L44S, G78Y
B28: trypsin variant SEQ ID NO: 124 (protein)
chain: B1 chain with L44S, Y131K
B29: trypsin variant SEQ ID NO: 64 (protein)
chain: B1 chain with L44S, Y131W
B30: trypsin variant SEQ ID NO: 71 (protein)
chain: B1 chain with L44S, S193T
B31: trypsin variant SEQ ID NO: 7 (protein)
chain: B1 chain with L44S, R99W
B32: trypsin variant SEQ ID NO: 129 (protein)
chain: B1 chain with L44S, S193N
B33: trypsin variant SEQ ID NO: 122 (protein)
chain: B1 chain with L44S, K170F
B34: trypsin variant SEQ ID NO: 123 (protein)
chain: B1 chain with R24G, L44S
B35: trypsin variant SEQ ID NO: 69 (protein)
chain: B1 chain with L44S, S193F
B36: trypsin variant SEQ ID NO: 128 (protein)
chain: B1 chain with L44S, Y131P
B37: trypsin variant SEQ ID NO: 8 (protein)
chain: B1 chain with L44S, R99G
B38: trypsin variant SEQ ID NO: 112 (protein)
chain: B1 chain with L44P, D56H, G78P, R99H, R107T, K125S, K170A, A172S
B39: trypsin variant SEQ ID NO: 126 (protein)
chain: B1 chain with R24E, L44S
B40: trypsin variant SEQ ID NO: 15 (protein)
chain: B1 chain with L44S, K125A
B41: trypsin variant SEQ ID NO: 127 (protein)
chain: B1 chain with L44Y
B42: trypsin variant SEQ ID NO: 59 (protein)
chain: B1 chain with L44S, R107G
B43: trypsin variant SEQ ID NO: 20 (protein)
chain: B1 chain with L44S, K125E
B44: trypsin variant SEQ ID NO: 114 (protein)
chain: B1 chain with L44P, D56H, R99A, R107T, K125A, K170A, A172S

Residue numbers refer to the chain shown, from its start. Bounds are passed on as bounds.

The series deals with pre-pro-human insulin.
For the protein B1, the “Activity PPI cleavage” value was “yes” and the Selectivity is reported as more than 90%.
For the protein B2, the “Activity PPI cleavage” value is “yes” and the Selectivity was more than 90%.
Take B3: the “Activity PPI cleavage” value was “yes” and the Selectivity is given as more than 90%.
In the case of B4, the “Activity PPI cleavage” value is “yes” and the Selectivity is recorded as more than 90%.
B5: the “Activity PPI cleavage” value is listed as “yes” and the Selectivity is more than 80%.
B6: the “Activity PPI cleavage” value is listed as “yes” and the Selectivity is reported as more than 90%.
Take B7: the “Activity PPI cleavage” value was “yes” and the Selectivity is given as more than 90%.
Regarding B8, the “Activity PPI cleavage” value is given as “yes” and the Selectivity is on record as more than 90%.
As to B9, the “Activity PPI cleavage” value is recorded as “yes” and the Selectivity is listed as more than 90%.
Regarding B10, the “Activity PPI cleavage” value was “yes” and the Selectivity is reported as more than 90%.
Regarding B11, the “Activity PPI cleavage” value is “yes” and the Selectivity was more than 90%.
On to B12, for which the “Activity PPI cleavage” value is reported as “yes” and the Selectivity was more than 90%.
Taken in the same sequence, the figures for B13 were “yes” and more than 90%.
As for B14, the “Activity PPI cleavage” value is given as “yes” and the Selectivity was more than 70%.
Take B15: the “Activity PPI cleavage” value is on record as “yes” and the Selectivity is recorded as more than 70%.
In the case of B16, the “Activity PPI cleavage” value is given as “yes” and the Selectivity is reported as more than 90%.
Take B17: the “Activity PPI cleavage” value is “yes” and the Selectivity is more than 90%.
With B18, the “Activity PPI cleavage” value is recorded as “yes” and the Selectivity stood at 1.4%.
Regarding B19, the “Activity PPI cleavage” value is reported as “yes” and the Selectivity is on record as more than 80%.
As for B20, the “Activity PPI cleavage” value is reported as “yes” and the Selectivity is on record as more than 90%.
Taken in the same sequence, the figures for B21 were “yes” and 33.8%.
For B22, the “Activity PPI cleavage” value is “yes” and the Selectivity is more than 80%.
Regarding B23, the “Activity PPI cleavage” value is recorded as “yes” and the Selectivity is more than 90%.
Turning to B24, the “Activity PPI cleavage” value is “yes” and the Selectivity amounted to 12.2%.
Consider B25, for which the “Activity PPI cleavage” value was “yes” and the Selectivity came out at 4.6%.
B26: the “Activity PPI cleavage” value was “yes” and the Selectivity is more than 90%.
As for B27, the “Activity PPI cleavage” value is on record as “yes” and the Selectivity was more than 90%.
Consider B28, for which the “Activity PPI cleavage” value is given as “yes” and the Selectivity was 27.6%.
On to B29, for which the “Activity PPI cleavage” value was “yes” and the Selectivity is recorded as more than 90%.
Turning to B30, the “Activity PPI cleavage” value was “yes” and the Selectivity was more than 62.1%.
For B31, in that order: “yes” and more than 90%.
As for B32, the “Activity PPI cleavage” value is given as “yes” and the Selectivity is 44.8%.
As for B33, the “Activity PPI cleavage” value was “yes” and the Selectivity is listed as 59.4%.
For B34, the “Activity PPI cleavage” value is on record as “yes” and the Selectivity was determined as 60.7%.
Consider B35, for which the “Activity PPI cleavage” value is “yes” and the Selectivity is listed as more than 70%.
Take B36: the “Activity PPI cleavage” value is on record as “yes” and the Selectivity turned out to be 57.1%.
For the protein B37, the “Activity PPI cleavage” value is given as “yes” and the Selectivity is recorded as more than 90%.
For B38, in that order: “yes” and more than 90%.
For B39, the “Activity PPI cleavage” value is reported as “yes” and the Selectivity was determined as 7.2%.
For the protein B40, the “Activity PPI cleavage” value is “yes” and the Selectivity is more than 90%.
Taken in the same sequence, the figures for B41 were “yes” and 20.5%.
In the case of B42, the “Activity PPI cleavage” value is recorded as “yes” and the Selectivity was more than 90%.
For B43, in that order: “yes” and more than 90%.
For the protein B44, the “Activity PPI cleavage” value is “yes” and the Selectivity was more than 90%.

Values taken from patent publication US20230303994.
